In patent US20040186048:

Molecular target: Ferritin-H (ferritin heavy chain) (Homo sapiens) (UniProt P02794)
Assay: cell_activity
Details: CV-1 cells, EKLF-stimulated beta-CAT reporter

Chain of Ferritin-H (ferritin heavy chain) (Homo sapiens) (P02794 2-183): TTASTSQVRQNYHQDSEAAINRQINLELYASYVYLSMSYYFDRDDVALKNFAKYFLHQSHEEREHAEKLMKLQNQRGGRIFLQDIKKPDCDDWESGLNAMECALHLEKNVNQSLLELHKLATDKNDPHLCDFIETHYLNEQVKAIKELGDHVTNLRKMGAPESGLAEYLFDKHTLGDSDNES

beta-globin 5' region -610/+20 (630 bp)
activity: 62 % repression
